B1: GAD1: yeast GST-HisX6 fusion protein on proteome chip (protein, UniProt Q04792 1-585, looked up)
Glutamate decarboxylase: MLHRHGSKQKNFENIAGKVVHDLAGLQLLSNDVQKSAVQSGHQGSNNMRDTSSQGMANKYSVPKKGLPADLSYQLIHNELTLDGNPHLNLASFVNTFTTDQARKLIDENLTKNLADNDEYPQLIELTQRCISMLAQLWHANPDEEPIGCATTGSSEAIMLGGLAMKKRWEHRMKNAGKDASKPNIIMSSACQVALEKFTRYFEVECRLVPVSHRSHHMLDPESLWDYVDENTIGCFVILGTTYTGHLENVEKVADVLSQIEAKHPDWSNTDIPIHADGASGGFIIPFGFEKEHMKAYGMERWGFNHPRVVSMNTSGHKFGLTTPGLGWVLWRDESLLADELRFKLKYLGGVEETFGLNFSRPGFQVVHQYFNFVSLGHSGYRTQFQNSLFVARAFSFELLNSSKLPGCFEIVSSIHESIENDSAPKSVKDYWEHPQAYKPGVPLVAFKLSKKFHEEYPEVPQAILSSLLRGRGWIIPNYPLPKATDGSDEKEVLRVVFRSEMKLDLAQLLIVDIESILTKLIHSYEKVCHHIELASEQTPERKSSFIYEMLLALASPQDDIPTPDEIEKKNKLKETTTRNYRGTC
modifications: GST-His6 tag
notes: yeast GST-HisX6 fusion protein on proteome chip
B2: MIS1: yeast GST-HisX6 fusion protein on proteome chip (protein, UniProt P09440 35-975, looked up)
C-1-tetrahydrofolate …: YHILSGRKLAQSIREKANDEIQAIKLKHPNFKPTLKIIQVGARPDSSTYVRMKLKASKDSNVDCIIEKLPAEITEVELLKKISDINDDDSIHGLLIQLPLPRHLDETTITNAVDFKKDVDGFHRYNAGELAKKGGKPYFIPCTPYGCMKLLEEAHVKLDGKNAVVLGRSSIVGNPIASLLKNANATVTVCHSHTRNIAEVVSQADIVIAACGIPQYVKSDWIKEGAVVIDVGINYVPDISKKSGQKLVGDVDFDSVKEKTSYITPVPGGVGPMTVAMLVSNVLLAAKRQFVESEKLPVIKPLPLHLESPVPSDIDISRAQSPKHIKQVAEELGIHSHELELYGHYKAKISPNIFKRLESRENGKYVLVAGITPTPLGEGKSTTTMGLVQALSAHLGKPSIANVRQPSLGPTLGVKGGAAGGGYAQVIPMDEFNLHLTGDIHAISAANNLLAAAIDTRMFHEATQKNDSTFYKRLVPRKKGIRKFTPSMQRRLKRLDIEKEDPDALTPEEVKRFARLNINPDTITIRRVVDINDRMLRQITIGEAATEKGFTRTTGFDITVASELMAILALSKSLHEMKERIGRMVIGADYDNKPVTVEDIGCTGALTALLRDAIKPNLMQTLEGTPVMVHAGPFANISIGASSVIADLMALKLVGSEKNPLNDKNIHEPGYVVTEAGFDFAMGGERFFDIKCRSSGLVPDAVVLVATVRALKSHGGAPNVKPGQSLPKEYTEENIDFVAKGVSNLVKQIENIKTFGIPVVVAINRFETDSQAEIEVIKKAALNAGASHAVTSNHWMEGGKGAVELAHAVVDATKEPKNFNFLYDVNSSIEDKLTSIVQKMYGGAKIEVSPEAQKKIDTYKKQGFGNLPICIAKTQYSLSHDPSLKGVPRGFTFPIRDVRASIGAGYLYALAAEIQTIPGLSTYAGYMAVEVDDDGEIEGLF
modifications: GST-His6 fusion tag
notes: as for B1
B3: KCS1: yeast GST-HisX6 fusion protein on proteome chip (protein, UniProt Q12494 1-1050, looked up)
Inositol hexakisphosphate …: MDTSHEIHDKIPDTLREQQQHLRQKESEGCITTLKDLNVPETKKLSSVLHGRKASTYLRIFRDDECLADNNNGVDSNNGGSVTCADKITRSEATPKSVPEGLQVSEKKNNPDTLSSSLSSFILSNHEEPAIKPNKHVAHRNNITETGQGSGEDIAKQQSHQPQVLHHQTSLKPIQNVDEGCISPKSTYQESLHGISEDLTLKPVSSATYYPHKSKADSGYEEKDKMENDIDTIQPATINCASGIATLPSSYNRHTFKVKTYSTLSQSLRQENVNNRSNEKKPQQFVPHSESIKEKPNTFEQDKEGEQADEEEDEGDNEHREYPLAVELKPFTNRVGGHTAIFRFSKRAVCKALVNRENRWYENIELCHKELLQFMPRYIGVLNVRQHFQSKDDFLSDLDQENNGKNDTSNENKDIEVNHNNNDDIALNTEPTGTPLTHIHSFPLEHSSRQVLEKEHPEIESVHPHVKRSLSSSNQPSLLPEVVLNDNRHIIPESLWYKYSDSPNSAPNDSYFSSSSSHNSCSFGERGNTNKLKRRDSGSTMINTELKNLVIREVFAPKCFRRKRNSNTTTMGNHNARLGSSPSFLTQKSRASSHDASNTSMKTLGDSSSQASLQMDDSKVNPNLQDPFLKKSLHEKISNALDGSHSVMDLKQFHKNEQIKHKNSFCNSLSPILTATNSRDDGEFATSPNYISNAQDGVFDMDEDTGNETINMDNHGCHLDSGKNMIIKSLAYNVSNDYSHHDIESITFEETSHTIVSKFILLEDLTRNMNKPCALDLKMGTRQYGVDAKRAKQLSQRAKCLKTTSRRLGVRICGLKVWNKDYYITRDKYFGRRVKVGWQFARVLARFLYDGKTIESLIRQIPRLIKQLDTLYSEIFNLKGYRLYGASLLLMYDGDANKSNSKRKKAANVKVNLIDFARCVTKEDAMECMDKFRIPPKSPNIEDKGFLRGVKSLRFYLLLIWNYLTSDMPLIFDEVEMNDMISEEADSNSFTSATGSKINFNSKWDWLDEFDKEDEEMYNDPNSKLRQKWRKYELIFDAEPRYNDDAQVSD
modifications: GST-HisX6 tag
notes: as for B1
B4: HEM14: yeast GST-HisX6 fusion protein on proteome chip (protein, UniProt P40012 1-539, looked up)
Protoporphyrinogen oxidase: MLLPLTKLKPRAKVAVVGGGVSGLCFTYFLSKLRPDVEITLFESQNRTGGWIYSCNTRDMSGNPIMLEKGPRTLRGVSDGTVLIMDTLKDLGKEAVIQSIDKGCIADKKFLLDPSDKLVQVPNSISTTVKFLLNPLGKGLITGMMGEWFRKKSPHPGQDESVESICDRRFGNNYISNNMISALLRGIYGDDVSLLSAKRTFKKIYYNELKHGSNTQAMIDNMRGKSRSKKTENLHQSLTGCLNDYSNAFGKDRSKLLDLSNTLKKYPMLGLAGGLETFPKIVRNALNEFKNVKIVTGNPVTQIMKRPANETTIGLKAKSGDQYETFDHLRLTITPPKIAKLLPKDQNSLSKLLDEIQSNTIILVNYYLPNKDVIDADLQGFGYLVPKSNKNPGKLLGVIFDSVIERNFKPLFDKLSTNPNALNKYTKVTAMIGGCMLNEHGVPVVPSREVTINAVKDALNNHLGISNKDLEAGQWEFTIADRCLPRFHVGYDAWQERAERKLQESYGQTVSVGGMGFSRSPGVPDVIVDGFNDALQLSK
modifications: GST-HisX6 tag
notes: as for B1

Legend:
Conditions in all cases: liposome binding signal on yeast proteome chip, Cy3-streptavidin detection
[1] = test system: phosphatidylcholine (PC) liposomes; test: Yeast proteome chip probed with PC liposomes
In short: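 Sonicated liposomes in TBS, of phosphatidylcholine with 1% (w/w) biotin-DHPE plus 5% (w/w) of the named phosphoinositide (PC-only liposomes lacking it), were incubated on blocked chips of GST-RGS-His6-tagged yeast ORF proteins for 1 h at RT. Bound liposomes were detected with Cy3- or Cy5-streptavidin after PBS washes.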

PI(3)P liposomes = test: Yeast proteome chip probed with PI(3)P liposomes
Text: To identify PI-binding proteins in yeast, liposomes were used as probes because the liposome provides the most relevant physiological condition to assay the interactors. Six types of liposomes were used. Each contains phosphatidylcholine (“PC”) with 1% (w/w) N-(biotinoyl)-1,2-dihexadecanoyl-sn-glycero-3-phosphoethanolamine, triethylammonium salt (biotin DHPE). The biotinylated lipid serves as a label that can be detected by Cy3-streptavidin (21). In addition to PC, the five other liposomes contain either 5% (w/w) PI(3)P, PI(4)P, PI(3,4)P2, PI(4,5)P2, or PI(3,4,5)P3 (FIG. 3A).
The protein-liposome interaction was assayed as follows. Appropriate amounts of each lipid in chloroform were mixed and dried under nitrogen. The lipid mixture was resuspended in TBS buffer by vortexing. The liposomes were created by sonication. Blocked proteome chips were washed three to five times in PBS buffer, and the extra liquid on the glass surface was removed by tapping the slides vertically on a KIMWIPE™. 200 μl of liposome solution was added to the proteome chip and immediately covered by a hydrophobic plastic cover slip (GRACE BIO-LAB™, USA). After trapped air bubbles were removed, the chip was incubated in a humidity chamber at RT for one hour. To remove the cover slip, the chip was immersed into large volume of PBS buffer (50 ml), so that the slip would float away. The chip was then moved to a second PBS bath (>50 ml) and washed 3×5 min with shaking at RT. After removing extra liquid on the surface of the chip, about 100 μl of Cy3 or Cy5 conjugated streptavidin (PIERCE™, USA; 1:2000 to 1:4000 dilution) was added to the surface and covered by a hydrophobic plastic cover slip (GRACE BIO-LABS™, USA). The chip was incubated for greater than 30 min in the dark at RT. The chip was then washed as described above. To completely remove the liquid on the chip, the chip was spun to dryness at 1500-2000 rpm for 5-10 min at RT.
• 1. S. Fields, Y. Kohara, D. J. Lockhart, Proc. Natl. Acad. Sci. 96, 8825 (1999); A. Goffeau et al., Science 274, 563 (1996). • 2 P. Ross-Macdonald et al., Nature 402, 413 (1999); J. L., DeRisi, V. R. Iyer, P. O. Brown, Science 278, 680 (1997); E. A. Winzeler et al., Science 285, 901 (1999). P. Uetz et al., Nature 403, 623 (2000); T. Ito et al., Proc. Natl. Acad. Sci. USA. 97, 1143 (2000) • 3 H. Zhu, M. Snyder, Curr. Opin. Chem. Biol. 5, 40 (2001). • 4 M. R. Martzen et al., Science 286, 1153 (1999). • 5 H. Zhu et al., Nat. Genet. 26, 283 (2000). • 6 G. MacBeath, S. L. Schreiber, Science 289, 1760 (2000). • 7 A. Caveman, J. Cell Sci. 113, 3543 (2000). • 8 P. Arenkov et al., Anal. Biochem 278, 123 (2000). • 9 D. A. Mitchell, T. K. Marshall, R. J. Deschenes, Yeast 9, 715 (1993). The expression vector pEGH was created by inserting an RGS-HisX6 epitope tag between the GST gene and the polycloning site of pEG(KG). The yeast ORFs were cloned using the strategy described previously (5), except every step was done in a 96-well format. Plasmid DNAs confirmed by DNA sequencing were reintroduced into both yeast (Y258) and E. coli (DH5a). […] 0.1 mM calcium was present in buffers in all subsequent steps. The chip was washed three times with PBS at RT. Cy3-conjugated streptavidin (Jackson IR, USA) (1:5000 dilution) was added to the chip and incubated for 30 min at RT. After extensive washing, the chip was spun dry and scanned using a microarray scanner; the data was subsequently acquired with the GENEPIX™ array densitometry software (Axon, USA). • 12 S. S. Hook, A. R. Means, Annu. Rev. Pharmacol. Toxicol.41, 471 (2001). • 13 M. S. Cyert, R. Kunisawa, D. Kaim, J. Thorner, Proc. Natl. Acad. Sci. USA 88, 7376 (1991). • 14 D. A. Stirling, K. A. Welch, M. J. Stark, EMBO J. 13, 4329 (1994). • 15 F. Bohl, Kruse, EMBO J. 19, 5514 (2000); E. Bertrand et al., Mol. Cell 2, 437 (1998). • 16 D. C. Winter, E. Y. Choe, R. Li, Proc. Nat. Acad Sci. USA 96, 7288 (1999). • 17 C.

PI(4,5)P2 liposomes = test: Yeast proteome chip probed with PI(4,5)P2 liposomes
PI(4)P liposomes = test: Yeast proteome chip probed with PI(4)P liposomes
PI(3,4,5)P3 liposomes = test: Yeast proteome chip probed with PI(3,4,5)P3 liposomes
PI(3,4)P2 liposomes = test: Yeast proteome chip probed with PI(3,4)P2 liposomes

| Molecule | PC [1] | PI(3)P (PI(3)P liposomes) | PI(4, 5)P2 (PI(4,5)P2 liposomes) | PI(4)P (PI(4)P liposomes) | PI(3, 4, 5)P3 (PI(3,4,5)P3 liposomes) | PI(3, 4)P2 (PI(3,4)P2 liposomes) |
| --- | --- | --- | --- | --- | --- | --- |
| B1 | 24.36 | 51.25 | 11.54 | −1.96 | – | – |
| B2 | 71.02 | 3.50 | – | 65.32 | 43.65 | 86.34 |
| B3 | 42.85 | 0.00 | – | 35.27 | 36.22 | 60.91 |
| B4 | 38.15 | 1.00 | – | 16.11 | 8.55 | 21.03 |

Source: patent publication US20050182242A1, “Global analysis of protein activities using proteome chips” (priority 2001, published 2005)
